Assay results taken from paper PMC11016934, “Mechanism of GTPase activation of a prokaryotic small Ras-like GTPase MglA by an asymmetrically interacting MglB dimer” (The Journal of Biological Chemistry, 2024).
Values belong to the molecule of their own block, whether it stands above or below them.

How the values were obtained:
[1] = target: MglB^ΔCt with C-terminal Strep-tag (MglB^ΔCt-Strep) (Myxococcus xanthus) (UniProt Q1DB03); assay: SEC-MALS; Superdex 200 Increase 10/300 GL, room temperature (about 25 °C), 50 mM NaCl, 50 mM Tris pH 8.0, 0.4 ml/min; purified linked complexes loaded at approximately 5 mg/ml, 110 μl
[2] = target: MglA-link-MglB^ΔCt with C-terminal hexahistidine tag (mglA-link-mglB^ΔCt-H6) (Myxococcus xanthus) (UniProt Q1DB03)
[3] = target: MglA-link-MglB1 with C-terminal hexahistidine tag (mglA-link-mglB-H6) (Myxococcus xanthus) (UniProt Q1DB03)
[4] = target: the molecule itself; assay: SEC; purified MglB^WT, MglB^ΔN and MglB^N37,R98A (Fig. S1B)
[5] = target: T1, MglB with C-terminal Strep-tag (MglB-Strep) (Myxococcus xanthus), Q1DB03; assay: SEC-MALS; Superdex 200 Increase 10/300 GL, room temperature (about 25 °C), 50 mM NaCl, 50 mM Tris pH 8.0, 0.4 ml/min; purified linked complexes loaded at approximately 5 mg/ml, 110 μl; settings: remark: other sources report otherwise
T1 chain: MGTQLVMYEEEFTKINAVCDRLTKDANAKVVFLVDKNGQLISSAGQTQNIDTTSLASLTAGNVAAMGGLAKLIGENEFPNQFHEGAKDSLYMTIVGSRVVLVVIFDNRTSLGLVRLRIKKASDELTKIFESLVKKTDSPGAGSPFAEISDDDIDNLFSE

[6] = target: T2, MglB, unlinked wild type (Myxococcus xanthus), Q1DB03; assay: SEC; purified MglB^WT, MglB^ΔN and MglB^N37,R98A (Fig. S1B); settings: remark: other sources report otherwise
T2 chain: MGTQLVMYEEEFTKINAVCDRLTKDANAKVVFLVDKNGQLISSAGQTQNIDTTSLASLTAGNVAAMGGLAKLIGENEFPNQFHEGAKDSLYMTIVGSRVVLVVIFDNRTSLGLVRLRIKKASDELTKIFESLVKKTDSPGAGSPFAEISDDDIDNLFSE

[7] = target: T3, MglA (mutual gliding protein A), unlinked (Myxococcus xanthus) (UniProt Q1DB04)
T3 sequence: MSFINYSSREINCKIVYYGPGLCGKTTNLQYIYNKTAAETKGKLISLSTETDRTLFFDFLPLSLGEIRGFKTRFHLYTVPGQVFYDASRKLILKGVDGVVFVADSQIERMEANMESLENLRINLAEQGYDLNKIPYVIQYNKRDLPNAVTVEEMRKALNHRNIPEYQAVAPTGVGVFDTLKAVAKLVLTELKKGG

B1: MglB with C-terminal Strep-tag (MglB-Strep) (natural protein)
chain: MGTQLVMYEEEFTKINAVCDRLTKDANAKVVFLVDKNGQLISSAGQTQNIDTTSLASLTAGNVAAMGGLAKLIGENEFPNQFHEGAKDSLYMTIVGSRVVLVVIFDNRTSLGLVRLRIKKASDELTKIFESLVKKTDSPGAGSPFAEISDDDIDNLFSE
- GTPase activity kobs of the linked complex {AB1^ΔCtB2} (NADH-coupled assay) [2]: 0.07 min⁻¹
- GTPase activity kobs of the linked complex {AB^WT} (NADH-coupled assay, GDP released per minute per μM enzyme) [3]: 0.2 min⁻¹

B2: MglB^N37,R98A (natural protein, Myxococcus xanthus)
chain: MGTQLVMYEEEFTKINAVCDRLTKDANAKVVFLVDKAGQLISSAGQTQNIDTTSLASLTAGNVAAMGGLAKLIGENEFPNQFHEGAKDSLYMTIVGSAVVLVVIFDNRTSLGLVRLRIKKASDELTKIFESLVKKTDSPGAGSPFAEISDDDIDNLFSE
notes: MglB, Myxococcus xanthus, Asn-37 and Arg-98 mutated to alanines; also called double mutant of Asn-37 and Arg-98 to alanines; source: E. coli BL21AI, purified (as MglB, then Superdex 75 and MonoQ)
- binding result [4]: binds

B6: MglB^ΔN (natural protein, Myxococcus xanthus)
chain: MYEEEFTKINAVCDRLTKDANAKVVFLVDKNGQLISSAGQTQNIDTTSLASLTAGNVAAMGGLAKLIGENEFPNQFHEGAKDSLYMTIVGSRVVLVVIFDNRTSLGLVRLRIKKASDELTKIFESLVKKTDSPGAGSPFAEISDDDIDNLFSE
notes: MglB, Myxococcus xanthus, with the N-terminal β-strand (residues 2 to 7) deleted; Dimer by SEC; also called MglB with residues 2 to 7 deleted; source: E. coli BL21AI, purified (as MglB, then Superdex 75 and MonoQ)
- stoichiometry N [4]: 2

More lines, now with the values ahead:

- stoichiometry N [1]: 2
- GTPase activity kobs of the linked complex {AB^ΔCt} (NADH-coupled assay) [2]: 0.1 min⁻¹
- GTPase activity kobs of the linked complex {AB1B2^ΔCt} (NADH-coupled assay) [3]: 0.17 min⁻¹
Molecule: MglB^ΔCt with C-terminal Strep-tag (MglB^ΔCt-Strep) (from UniProt Q1DB03 1-159) (domain or fragment)

- stoichiometry N [5]: 2
B3: MglB with C-terminal Strep-tag (MglB-Strep), Q1DB03 1-159 (natural protein)
chain: MGTQLVMYEEEFTKINAVCDRLTKDANAKVVFLVDKNGQLISSAGQTQNIDTTSLASLTAGNVAAMGGLAKLIGENEFPNQFHEGAKDSLYMTIVGSRVVLVVIFDNRTSLGLVRLRIKKASDELTKIFESLVKKTDSPGAGSPFAEISDDDIDNLFSE

- stoichiometry N [6]: 2
B4: MglB, unlinked wild type, Q1DB03 1-159 (natural protein)
chain: MGTQLVMYEEEFTKINAVCDRLTKDANAKVVFLVDKNGQLISSAGQTQNIDTTSLASLTAGNVAAMGGLAKLIGENEFPNQFHEGAKDSLYMTIVGSRVVLVVIFDNRTSLGLVRLRIKKASDELTKIFESLVKKTDSPGAGSPFAEISDDDIDNLFSE

- GTPase activity kobs of unlinked AB^ΔCt (NADH-coupled assay) [7]: 0.08 min⁻¹
B5: MglB^ΔCt, unlinked (domain or fragment)
chain: MGTQLVMYEEEFTKINAVCDRLTKDANAKVVFLVDKNGQLISSAGQTQNIDTTSLASLTAGNVAAMGGLAKLIGENEFPNQFHEGAKDSLYMTIVGSRVVLVVIFDNRTSLGLVRLRIKKASDELTKIFESLVKKTDSPGAGSPFAEISDDDIDNLFSE
